From FireProtDB (doi:10.1002/pro.5560040510)

Settings: Bos taurus, glycine 40 mM, reversible: no, whole UniProt chain shown; for Tm / unfolding enthalpy (van 't Hoff): Thermal, Absorbance

B1: Adrenodoxin, mitochondrial wild type, P00257 (protein)
chain: MAARLLRVASAALGDTAGRWRLLARPRAGAGGLRGSRGPGLGGGAVATRTLSVSGRAQSSSEDKITVHFINRDGETLTTKGKIGDSLLDVVVQNNLDIDGFGACEGTLACSTCHLIFEQHIFEKLEAITDEENDMLDLAYGLTDRSRLGCQICLTKAMDNMTVRVPDAVSDARESIDMGMNSSKIE
- Tm (pH 6.5): 47.5 °C
- unfolding enthalpy (van 't Hoff) (pH 6.5): 90 kcal/mol
- Tm (pH 7.4): 53.7 °C
- unfolding enthalpy (van 't Hoff) (pH 7.4): 91.6 kcal/mol
- unfolding free energy (pH 8.5, 25 °C, Urea, DSC): 5.02 kcal/mol
- Tm (pH 8.5): 53.5 °C
- unfolding enthalpy (van 't Hoff) (pH 8.5): 82 kcal/mol
- Tm (pH 9.5): 54 °C
- unfolding enthalpy (van 't Hoff) (pH 9.5): 79.2 kcal/mol
- Tm (pH 10.5): 53.2 °C
- unfolding enthalpy (van 't Hoff) (pH 10.5): 64.6 kcal/mol
